Where two headings read alike, the source gives them in different places. Values belong to the substance of their own block, whether it stands above or below them.
What was measured:
[1] = molecular target: T1, human IL-2Rγ expressed on cells (NK-92, Jurkat) (human) (UniProt P31785); assay: flow cytometry on NK-92 cells (endogenous human IL-2Rg), isotype control 10 ug/ml
T1 sequence (looked up): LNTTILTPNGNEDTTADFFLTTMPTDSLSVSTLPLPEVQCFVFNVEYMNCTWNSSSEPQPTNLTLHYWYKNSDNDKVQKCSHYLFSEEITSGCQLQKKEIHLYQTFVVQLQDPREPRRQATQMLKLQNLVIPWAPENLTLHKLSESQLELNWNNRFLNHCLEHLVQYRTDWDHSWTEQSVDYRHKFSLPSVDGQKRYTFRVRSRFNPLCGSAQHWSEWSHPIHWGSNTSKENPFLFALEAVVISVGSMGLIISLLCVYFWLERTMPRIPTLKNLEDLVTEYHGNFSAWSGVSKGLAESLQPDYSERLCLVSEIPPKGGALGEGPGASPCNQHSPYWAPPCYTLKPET

[2] = molecular target: T1, human IL-2Rγ expressed on cells (NK-92, Jurkat) (human); assay: as above; remark: listed apart in the source
[3] = molecular target: T2, mouse IL-2Rγ expressed on cells (MC/9) (mouse) (UniProt P34902); assay: flow cytometry on MC/9 cells (endogenous mouse IL-2Rg), isotype control 10 ug/ml
T2 sequence (looked up): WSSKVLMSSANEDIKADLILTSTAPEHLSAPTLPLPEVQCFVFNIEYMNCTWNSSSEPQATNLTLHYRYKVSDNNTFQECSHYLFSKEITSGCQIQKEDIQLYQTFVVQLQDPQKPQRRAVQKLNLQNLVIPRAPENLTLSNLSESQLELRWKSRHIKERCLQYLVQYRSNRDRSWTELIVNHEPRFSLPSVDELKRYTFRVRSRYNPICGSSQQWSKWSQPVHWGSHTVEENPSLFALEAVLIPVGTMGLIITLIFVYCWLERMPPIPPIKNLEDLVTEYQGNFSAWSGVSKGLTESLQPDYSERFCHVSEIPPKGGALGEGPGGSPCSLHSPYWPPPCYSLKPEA

[4] = molecular target: T1, human IL-2Rγ expressed on cells (NK-92, Jurkat) (human); assay: flow cytometry on Jurkat cells (endogenous human IL-2Rg), isotype control 10 ug/ml
[5] = molecular target: human IL-2Rγ expressed on cells (human) (UniProt P31785); assay: flow cytometry, isotype control at 10 µg/ml; low end of the range (Jurkat by Table 9-1)
[6] = molecular target: human IL-2Rγ expressed on cells (human) (UniProt P31785); assay: flow cytometry, isotype control at 10 µg/ml; high end of the range (NK-92 by Table 9-1)
[7] = molecular target: human IL-2Rγ expressed on cells (human) (UniProt P31785); assay: flow cytometry on NK-92 cells, isotype control at 10 µg/ml; the end of the range that Table 9-2 ties to NK-92
[8] = molecular target: T2, mouse IL-2Rγ expressed on cells (MC/9) (mouse); assay: flow cytometry on MC/9 cells (endogenous mouse IL-2Rg), secondary antibody alone
[9] = molecular target: T1, human IL-2Rγ expressed on cells (NK-92, Jurkat) (human); assay: flow cytometry on NK-92 cells (endogenous human IL-2Rg), secondary antibody alone
[10] = molecular target: T1, human IL-2Rγ expressed on cells (NK-92, Jurkat) (human); assay: flow cytometry on Jurkat cells (endogenous human IL-2Rg), secondary antibody alone
[11] = molecular target: T3, human IL2Rγ expressed on cells (human) (UniProt P31785); assay: cell-based or functional assay
T3 sequence (looked up): T1 sequence (looked up)

[12] = molecular target: T3, human IL2Rγ expressed on cells (human); assay: cell-based or functional assay; remark: listed apart in the source

- Binding Ratio (Sample over unstained MFIs) [1]: 1
- Binding Ratio (Sample over unstained MFIs) [2]: 13
- Binding Ratio (Sample over unstained MFIs) [3]: 1
- Binding Ratio (Sample over unstained MFIs) [4]: 1
- binding ratio (sample MFI over unstained MFI) [5]: 1
- binding ratio (sample MFI over unstained MFI) [6]: 13
- binding ratio (sample MFI over unstained MFI) [7]: 1
Substance: REGN1945 (antibody)

- Binding Ratio (Sample over unstained MFIs) [8]: 1
- Binding Ratio (Sample over unstained MFIs) [9]: 1
- Binding Ratio (Sample over unstained MFIs) [10]: 1
Substance: anti-human antibody conjugated to allophycocyanin (APC) (Jackson ImmunoResearch, #109-136-170)

- EC50 [M] of ligand; NK92/hIL7R/STAT3-luc [11]: 4.5e-11 M
- EC50 [M] of ligand; NK92/hIL7R/STAT3-luc [12]: 3.3e-11 M
Substance: human IL-2 (from UniProt P60568 21-153) (ligand)

- EC50 [M] of ligand; NK92/hIL7R/STAT3-luc [11]: 3.3e-11 M
- EC50 [M] of ligand; NK92/hIL7R/STAT3-luc [12]: 2e-11 M
Substance: human IL-9 (from UniProt P15248 19-144) (ligand)

- EC50 [M] of ligand; NK92/hIL7R/STAT3-luc [11]: 2.3e-10 M
- EC50 [M] of ligand; NK92/hIL7R/STAT3-luc [12]: 1.5e-10 M
Substance: human IL-15 (from UniProt P40933 49-162) (ligand)

- EC50 [M] of ligand; NK92/hIL7R/STAT3-luc [11]: 6e-12 M
- EC50 [M] of ligand; NK92/hIL7R/STAT3-luc [12]: 3.1e-12 M
Substance: human IL-21 (from UniProt Q9HBE4 30-162) (ligand)

— US20230279131A1
